Values belong to the binder of their own block, whether it stands above or below them.
Biological target: C3 convertase complex (UniProt P01024 23-1663; P00751 260-764)
Assay: cell-based or functional assay
For C3 convertase activity % of the control in this document: test concentration or dose not given here.

C3 convertase complex, sequence (P01024 23-1663, chain 1 of 2): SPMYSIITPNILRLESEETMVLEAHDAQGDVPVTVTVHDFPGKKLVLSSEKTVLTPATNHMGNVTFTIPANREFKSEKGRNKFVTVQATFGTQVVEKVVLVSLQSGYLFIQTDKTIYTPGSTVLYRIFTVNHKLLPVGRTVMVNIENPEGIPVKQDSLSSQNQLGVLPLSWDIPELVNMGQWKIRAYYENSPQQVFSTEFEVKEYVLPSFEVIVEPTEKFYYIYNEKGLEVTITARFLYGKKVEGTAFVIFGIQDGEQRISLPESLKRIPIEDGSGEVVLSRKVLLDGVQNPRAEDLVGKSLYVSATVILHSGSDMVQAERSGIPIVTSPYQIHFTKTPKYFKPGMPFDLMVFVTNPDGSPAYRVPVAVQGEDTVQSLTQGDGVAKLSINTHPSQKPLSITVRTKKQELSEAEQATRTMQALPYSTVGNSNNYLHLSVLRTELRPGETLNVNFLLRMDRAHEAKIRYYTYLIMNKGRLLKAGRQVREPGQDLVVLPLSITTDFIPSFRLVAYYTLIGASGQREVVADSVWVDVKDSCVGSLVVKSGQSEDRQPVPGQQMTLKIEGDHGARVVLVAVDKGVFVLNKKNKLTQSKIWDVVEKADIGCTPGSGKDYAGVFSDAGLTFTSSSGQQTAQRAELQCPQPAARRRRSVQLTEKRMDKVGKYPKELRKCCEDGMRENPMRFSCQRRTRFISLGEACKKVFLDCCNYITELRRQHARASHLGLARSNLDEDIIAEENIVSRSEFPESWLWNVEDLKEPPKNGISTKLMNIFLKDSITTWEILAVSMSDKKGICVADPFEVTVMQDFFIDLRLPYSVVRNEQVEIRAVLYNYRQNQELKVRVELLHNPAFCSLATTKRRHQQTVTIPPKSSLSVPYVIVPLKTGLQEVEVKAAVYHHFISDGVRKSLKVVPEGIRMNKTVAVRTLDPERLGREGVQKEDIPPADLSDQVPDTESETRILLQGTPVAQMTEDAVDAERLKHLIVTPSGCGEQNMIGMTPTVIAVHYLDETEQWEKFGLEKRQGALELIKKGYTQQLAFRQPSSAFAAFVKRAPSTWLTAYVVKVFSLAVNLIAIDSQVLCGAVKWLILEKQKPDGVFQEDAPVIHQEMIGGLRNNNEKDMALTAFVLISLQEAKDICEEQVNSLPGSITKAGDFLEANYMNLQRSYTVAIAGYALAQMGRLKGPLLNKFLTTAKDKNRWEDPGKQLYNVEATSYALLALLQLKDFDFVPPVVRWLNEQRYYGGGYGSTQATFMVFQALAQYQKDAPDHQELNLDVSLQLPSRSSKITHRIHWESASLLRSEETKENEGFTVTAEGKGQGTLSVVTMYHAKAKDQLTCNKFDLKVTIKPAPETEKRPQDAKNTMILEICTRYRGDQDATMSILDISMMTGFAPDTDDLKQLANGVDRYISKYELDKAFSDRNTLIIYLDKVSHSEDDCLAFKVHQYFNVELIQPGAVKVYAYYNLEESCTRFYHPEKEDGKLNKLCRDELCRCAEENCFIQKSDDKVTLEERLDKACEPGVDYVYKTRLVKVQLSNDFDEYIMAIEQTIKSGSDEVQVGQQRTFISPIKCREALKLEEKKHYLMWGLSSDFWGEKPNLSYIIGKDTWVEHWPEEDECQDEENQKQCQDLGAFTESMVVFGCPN
C3 convertase complex, sequence (P00751 260-764, chain 2 of 2): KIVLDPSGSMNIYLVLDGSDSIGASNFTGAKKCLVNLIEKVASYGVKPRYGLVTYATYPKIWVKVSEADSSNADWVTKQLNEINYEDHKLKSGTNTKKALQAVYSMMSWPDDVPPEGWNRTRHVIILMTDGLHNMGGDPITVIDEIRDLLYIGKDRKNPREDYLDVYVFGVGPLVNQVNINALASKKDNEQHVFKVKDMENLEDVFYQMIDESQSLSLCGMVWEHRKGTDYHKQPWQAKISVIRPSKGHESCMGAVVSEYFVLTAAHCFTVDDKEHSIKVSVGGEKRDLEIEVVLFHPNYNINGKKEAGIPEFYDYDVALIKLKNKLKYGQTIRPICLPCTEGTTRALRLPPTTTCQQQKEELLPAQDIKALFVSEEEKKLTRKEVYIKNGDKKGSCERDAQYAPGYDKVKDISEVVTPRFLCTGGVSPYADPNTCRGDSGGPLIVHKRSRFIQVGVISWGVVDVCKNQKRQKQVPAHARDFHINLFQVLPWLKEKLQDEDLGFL

C3 convertase activity % of the control: 0 % of the control | C3 convertase activity IC50: 493 µg/mL
B1: pCEP4-1NT8-19CT20 (other)
chain: EDCNELPPRRNTEILTGSWSDQTYPEGTQAIYKCRPGYRSLGNVIMVCRKGEWVALNPLRKCQKRPCGHPGDTPFGTFTLTGGNVFEYGVKAVYTCNEGYQLLGEINYRECDTDGWTNDIPICEVVKCLPVTAPENGKIVSSAMEPDREYHFGQAVRFVCNSGYKIEGDEEMHCSDDGFWSKEKPKCVEISCKSPDVINGSPISQKIIYKENERFQYKCNMGYEYSERGDAVCTESGWRPLPSCEEKSCDNPYIPNGDYSPLRIKHRTGDEITYQCRNGFYPATRGNTAKCTSTGWIPAPRCTLKPCDYPDIKHGGLYHENMRRPYFPVAVGKYYSYYCDEHFETPSGSYWDHIHCTQDGWSPAVPCLRKCYFPYLENGYNQNYGRKFVQGKSIDVACHPGYALPKAQTTVTCMENGWSPTPRCIRVKTCSKSSIDIENGFISESQYTYALKEKAKYQCKLGYVTADGETSGSITCGKDGWSAQPTCIKSGASGCGPPPPIDNGDITSFPLSVYAPASSVEYQCQNLYQLEGNKRITCRNGQWSEPPKCLHPCVISREIMENYNIALRWTAKQKLYSRTGESVEFVCKRGYRLSSRSHTLRTTCWDGKLEYPTCAKRGGSGHHHHHH

C3 convertase activity % of the control: 1 % of the control | C3 convertase activity IC50: 6.05 µg/mL
B2: pCEP4-1NT10-19CT20 (other)
chain: EDCNELPPRRNTEILTGSWSDQTYPEGTQAIYKCRPGYRSLGNVIMVCRKGEWVALNPLRKCQKRPCGHPGDTPFGTFTLTGGNVFEYGVKAVYTCNEGYQLLGEINYRECDTDGWTNDIPICEVVKCLPVTAPENGKIVSSAMEPDREYHFGQAVRFVCNSGYKIEGDEEMHCSDDGFWSKEKPKCVEISCKSPDVINGSPISQKIIYKENERFQYKCNMGYEYSERGDAVCTESGWRPLPSCEEKSCDNPYIPNGDYSPLRIKHRTGDEITYQCRNGFYPATRGNTAKCTSTGWIPAPRCTLKPCDYPDIKHGGLYHENMRRPYFPVAVGKYYSYYCDEHFETPSGSYWDHIHCTQDGWSPAVPCLRKCYFPYLENGYNQNHGRKFVQGKSIDVACHPGYALPKAQTTVTCMENGWSPTPRCIRVKTCSKSSIDIENGFISESQYTYALKEKAKYQCKLGYVTADGETSGSITCGKDGWSAQPTCIKSCDIPVFMNARTKNDFTWFKLNDTLDYECHDGYESNTGSTTGSIVCGYNGWSDLPICYERECELPKIDVHLVPDRKKDQYKVGEVLKFSCKPGFTIVGPNSVQCYHFGLSPDLPICKEQVQSGASGCGPPPPIDNGDITSFPLSVYAPASSVEYQCQNLYQLEGNKRITCRNGQWSEPPKCLHPCVISREIMENYNIALRWTAKQKLYSRTGESVEFVCKRGYRLSSRSHTLRTTCWDGKLEYPTCAKRGGSGHHHHHH

Source: patent US20170190753A1 (LABORATOIRE FRANCAIS DU FRACTIONNEMENT ET DES …, published 2017)
